Reference: publication PMC12102759 (2025)

B1: TPTE2 peptide 92-107 (Phosphatidylinositol 3,4,5-trisphosphate 3-phosphatase TPTE2), 16-mer library wild type / TLN1 PTB (TLN1 Phosphotyrosine-binding (PTB) domain, residues 309-401) (parent complex)
chain 1: LADLIFTDSKLYIPLE
chain 2: GVSFFLVKEKMKGKNKLVPRLLGITKECVMRVDEKTKEVIQEWNLTNIKRWAASPKSFTLDFGDYQDGYYSVQTTEGEQIAQLIAGYIDIILK

Variants of: B1
Test: proteomic peptide phage display deep mutational scan (ProP-PD DMS): M13 P8 16-mer library selected against immobilised GST-tagged bait for four days (rounds), NGS of the eluted pools per day and pseudo-replica; bait immobilised on MaxiSorp plates (10 µg), library pre-cleared on GST, 2 h binding at 4 °C, five washes; one round per day, days 1-4; value from days 2 and 3
chain 1 P14G was tested, and the screen value was 0.000463 average fractional NGS count over selection days 2 and 3 (reads of this peptide / all reads for the bait, averaged over ….
In the case of chain 1 A2I, the screen value is reported as 0.000259 average fractional NGS count over selection days 2 and 3 (reads of this peptide / all reads for the bait, averaged over ….
In the case of chain 1 A2R, the screen value is reported as 0.00121 average fractional NGS count over selection days 2 and 3 (reads of this peptide / all reads for the bait, averaged over ….
For chain 1 A2D, the screen value was 0.0012 average fractional NGS count over selection days 2 and 3 (reads of this peptide / all reads for the bait, averaged over ….
With chain 1 A2Q the screen value was 0.000351 average fractional NGS count over selection days 2 and 3 (reads of this peptide / all reads for the bait, averaged over ….
With chain 1 A2Y the screen value was 0.00133 average fractional NGS count over selection days 2 and 3 (reads of this peptide / all reads for the bait, averaged over ….
chain 1 A2N was tested, and the screen value was 0.000208 average fractional NGS count over selection days 2 and 3 (reads of this peptide / all reads for the bait, averaged over ….
For chain 1 A2S, the screen value was 0.000833 average fractional NGS count over selection days 2 and 3 (reads of this peptide / all reads for the bait, averaged over ….
With chain 1 A2M the screen value was 0.000697 average fractional NGS count over selection days 2 and 3 (reads of this peptide / all reads for the bait, averaged over ….
For chain 1 D3Q, the screen value was 0.000216 average fractional NGS count over selection days 2 and 3 (reads of this peptide / all reads for the bait, averaged over ….
chain 1 D3E was tested, and the screen value was 0.000596 average fractional NGS count over selection days 2 and 3 (reads of this peptide / all reads for the bait, averaged over ….
With chain 1 D3G the screen value was 0.000214 average fractional NGS count over selection days 2 and 3 (reads of this peptide / all reads for the bait, averaged over ….
chain 1 D3S was tested, and the screen value was 0.000257 average fractional NGS count over selection days 2 and 3 (reads of this peptide / all reads for the bait, averaged over ….
chain 1 D8E was tested, and the screen value was 0.00151 average fractional NGS count over selection days 2 and 3 (reads of this peptide / all reads for the bait, averaged over ….
In the case of chain 1 D8Q, the screen value is reported as 0.000205 average fractional NGS count over selection days 2 and 3 (reads of this peptide / all reads for the bait, averaged over ….
For chain 1 D8T, the screen value was 0.000557 average fractional NGS count over selection days 2 and 3 (reads of this peptide / all reads for the bait, averaged over ….
For chain 1 T7V, the screen value was 0.000833 average fractional NGS count over selection days 2 and 3 (reads of this peptide / all reads for the bait, averaged over ….
With chain 1 T7H the screen value was 0.000516 average fractional NGS count over selection days 2 and 3 (reads of this peptide / all reads for the bait, averaged over ….
chain 1 T7N was tested, and the screen value was 0.000232 average fractional NGS count over selection days 2 and 3 (reads of this peptide / all reads for the bait, averaged over ….
In the case of chain 1 T7Q, the screen value is reported as 0.000521 average fractional NGS count over selection days 2 and 3 (reads of this peptide / all reads for the bait, averaged over ….
For chain 1 T7M, the screen value was 0.000146 average fractional NGS count over selection days 2 and 3 (reads of this peptide / all reads for the bait, averaged over ….
With chain 1 L4D the screen value was 0.0012 average fractional NGS count over selection days 2 and 3 (reads of this peptide / all reads for the bait, averaged over ….
With chain 1 L4E the screen value was 0.000131 average fractional NGS count over selection days 2 and 3 (reads of this peptide / all reads for the bait, averaged over ….
For chain 1 L4M, the screen value was 0.000697 average fractional NGS count over selection days 2 and 3 (reads of this peptide / all reads for the bait, averaged over ….
In the case of chain 1 L4H, the screen value is reported as 0.000467 average fractional NGS count over selection days 2 and 3 (reads of this peptide / all reads for the bait, averaged over ….
chain 1 L4S was tested, and the screen value was 0.00023 average fractional NGS count over selection days 2 and 3 (reads of this peptide / all reads for the bait, averaged over ….
With chain 1 L11I the screen value was 0.00106 average fractional NGS count over selection days 2 and 3 (reads of this peptide / all reads for the bait, averaged over ….
In the case of chain 1 E16M, the screen value is reported as 0.0125 average fractional NGS count over selection days 2 and 3 (reads of this peptide / all reads for the bait, averaged over ….
With chain 1 E16D the screen value was 0.00467 average fractional NGS count over selection days 2 and 3 (reads of this peptide / all reads for the bait, averaged over ….
With chain 1 E16N the screen value was 0.00152 average fractional NGS count over selection days 2 and 3 (reads of this peptide / all reads for the bait, averaged over ….
In the case of chain 1 E16T, the screen value is reported as 0.00391 average fractional NGS count over selection days 2 and 3 (reads of this peptide / all reads for the bait, averaged over ….
chain 1 E16S was tested, and the screen value was 0.000917 average fractional NGS count over selection days 2 and 3 (reads of this peptide / all reads for the bait, averaged over ….
In the case of chain 1 E16W, the screen value is reported as 0.00358 average fractional NGS count over selection days 2 and 3 (reads of this peptide / all reads for the bait, averaged over ….
In the case of chain 1 E16P, the screen value is reported as 0.00113 average fractional NGS count over selection days 2 and 3 (reads of this peptide / all reads for the bait, averaged over ….
In the case of chain 1 E16F, the screen value is reported as 0.000466 average fractional NGS count over selection days 2 and 3 (reads of this peptide / all reads for the bait, averaged over ….
In the case of chain 1 E16V, the screen value is reported as 0.0105 average fractional NGS count over selection days 2 and 3 (reads of this peptide / all reads for the bait, averaged over ….
In the case of chain 1 E16K, the screen value is reported as 0.000641 average fractional NGS count over selection days 2 and 3 (reads of this peptide / all reads for the bait, averaged over ….
For chain 1 E16Y, the screen value was 0.00177 average fractional NGS count over selection days 2 and 3 (reads of this peptide / all reads for the bait, averaged over ….
chain 1 E16I was tested, and the screen value was 0.000286 average fractional NGS count over selection days 2 and 3 (reads of this peptide / all reads for the bait, averaged over ….
For chain 1 E16A, the screen value was 0.00143 average fractional NGS count over selection days 2 and 3 (reads of this peptide / all reads for the bait, averaged over ….
For chain 1 E16H, the screen value was 0.00501 average fractional NGS count over selection days 2 and 3 (reads of this peptide / all reads for the bait, averaged over ….
In the case of chain 1 L15G, the screen value is reported as 0.000168 average fractional NGS count over selection days 2 and 3 (reads of this peptide / all reads for the bait, averaged over ….
With chain 1 L15D the screen value was 0.000238 average fractional NGS count over selection days 2 and 3 (reads of this peptide / all reads for the bait, averaged over ….
In the case of chain 1 L15M, the screen value is reported as 0.00539 average fractional NGS count over selection days 2 and 3 (reads of this peptide / all reads for the bait, averaged over ….
chain 1 L15A was tested, and the screen value was 0.000297 average fractional NGS count over selection days 2 and 3 (reads of this peptide / all reads for the bait, averaged over ….
With chain 1 L15Y the screen value was 0.00117 average fractional NGS count over selection days 2 and 3 (reads of this peptide / all reads for the bait, averaged over ….
chain 1 L15Q was tested, and the screen value was 0.00188 average fractional NGS count over selection days 2 and 3 (reads of this peptide / all reads for the bait, averaged over ….
chain 1 L15I was tested, and the screen value was 0.00147 average fractional NGS count over selection days 2 and 3 (reads of this peptide / all reads for the bait, averaged over ….
For chain 1 L15S, the screen value was 0.000436 average fractional NGS count over selection days 2 and 3 (reads of this peptide / all reads for the bait, averaged over ….
For chain 1 L15R, the screen value was 0.0012 average fractional NGS count over selection days 2 and 3 (reads of this peptide / all reads for the bait, averaged over ….
chain 1 Y12F was tested, and the screen value was 0.00012 average fractional NGS count over selection days 2 and 3 (reads of this peptide / all reads for the bait, averaged over ….
chain 1 Y12W was tested, and the screen value was 0.000296 average fractional NGS count over selection days 2 and 3 (reads of this peptide / all reads for the bait, averaged over ….
chain 1 I5G was tested, and the screen value was 0.000313 average fractional NGS count over selection days 2 and 3 (reads of this peptide / all reads for the bait, averaged over ….
For chain 1 I5Y, the screen value was 0.00125 average fractional NGS count over selection days 2 and 3 (reads of this peptide / all reads for the bait, averaged over ….
With chain 1 I5W the screen value was 0.00126 average fractional NGS count over selection days 2 and 3 (reads of this peptide / all reads for the bait, averaged over ….
chain 1 I5N was tested, and the screen value was 0.00116 average fractional NGS count over selection days 2 and 3 (reads of this peptide / all reads for the bait, averaged over ….
chain 1 I5Q was tested, and the screen value was 0.000996 average fractional NGS count over selection days 2 and 3 (reads of this peptide / all reads for the bait, averaged over ….
With chain 1 I5R the screen value was 0.0019 average fractional NGS count over selection days 2 and 3 (reads of this peptide / all reads for the bait, averaged over ….
With chain 1 I5A the screen value was 0.00216 average fractional NGS count over selection days 2 and 3 (reads of this peptide / all reads for the bait, averaged over ….
chain 1 I5V was tested, and the screen value was 0.000758 average fractional NGS count over selection days 2 and 3 (reads of this peptide / all reads for the bait, averaged over ….
For chain 1 I5E, the screen value was 0.000204 average fractional NGS count over selection days 2 and 3 (reads of this peptide / all reads for the bait, averaged over ….
For chain 1 I5L, the screen value was 0.000706 average fractional NGS count over selection days 2 and 3 (reads of this peptide / all reads for the bait, averaged over ….
With chain 1 I5H the screen value was 0.000463 average fractional NGS count over selection days 2 and 3 (reads of this peptide / all reads for the bait, averaged over ….
In the case of chain 1 I5F, the screen value is reported as 0.000696 average fractional NGS count over selection days 2 and 3 (reads of this peptide / all reads for the bait, averaged over ….
With chain 1 I5S the screen value was 0.000525 average fractional NGS count over selection days 2 and 3 (reads of this peptide / all reads for the bait, averaged over ….
chain 1 I5T was tested, and the screen value was 0.000326 average fractional NGS count over selection days 2 and 3 (reads of this peptide / all reads for the bait, averaged over ….
chain 1 K10T was tested, and the screen value was 0.000653 average fractional NGS count over selection days 2 and 3 (reads of this peptide / all reads for the bait, averaged over ….
chain 1 K10P was tested, and the screen value was 0.000281 average fractional NGS count over selection days 2 and 3 (reads of this peptide / all reads for the bait, averaged over ….
With chain 1 K10Q the screen value was 0.00103 average fractional NGS count over selection days 2 and 3 (reads of this peptide / all reads for the bait, averaged over ….
chain 1 K10Y was tested, and the screen value was 0.00128 average fractional NGS count over selection days 2 and 3 (reads of this peptide / all reads for the bait, averaged over ….
For chain 1 K10I, the screen value was 0.000133 average fractional NGS count over selection days 2 and 3 (reads of this peptide / all reads for the bait, averaged over ….
chain 1 K10A was tested, and the screen value was 0.0017 average fractional NGS count over selection days 2 and 3 (reads of this peptide / all reads for the bait, averaged over ….
chain 1 K10G was tested, and the screen value was 0.000514 average fractional NGS count over selection days 2 and 3 (reads of this peptide / all reads for the bait, averaged over ….
In the case of chain 1 K10E, the screen value is reported as 0.00277 average fractional NGS count over selection days 2 and 3 (reads of this peptide / all reads for the bait, averaged over ….
In the case of chain 1 K10S, the screen value is reported as 0.000449 average fractional NGS count over selection days 2 and 3 (reads of this peptide / all reads for the bait, averaged over ….
